Measurements from PMC6433865.

Key:
[1] = target: T1, C terminus of Hsc70-interacting protein (CHIP) (human), Q9UNE7; test: negative-stain electron microscopy, 3D reconstruction; complexes stabilised and isolated by GraFix (10-30% glycerol gradient, 0.15% glutaraldehyde), stained with 2% uranyl acetate, JEOL JEM1010 at 80 kV; atomic structures docked into 19-26 Å volumes; details: remark: other sources report otherwise
T1 chain: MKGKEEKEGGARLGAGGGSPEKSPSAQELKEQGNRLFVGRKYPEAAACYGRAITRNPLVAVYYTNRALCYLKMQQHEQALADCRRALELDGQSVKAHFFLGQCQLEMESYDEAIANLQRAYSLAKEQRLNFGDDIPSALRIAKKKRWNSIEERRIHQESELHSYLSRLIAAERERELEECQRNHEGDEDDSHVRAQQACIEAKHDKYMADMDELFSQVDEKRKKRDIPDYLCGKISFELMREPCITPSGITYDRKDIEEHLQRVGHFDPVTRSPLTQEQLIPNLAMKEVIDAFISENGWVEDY

[2] = target: T1, C terminus of Hsc70-interacting protein …; test: cryo-EM structure; ternary complexes after GraFix, vitrified; Titan Krios 300 kV (Hsp70:p53-TMGST:CHIP, 15 Å) or Talos Arctica 200 kV (Hsp90:p53-TMGST:CHIP, 13 Å); atomic structures docked; details: remark: other sources report otherwise

stoichiometry N [1]: 2 | stoichiometry N [2]: 2
B1: C terminus of Hsc70-interacting protein (CHIP), Q9UNE7 1-303 (enzyme)
chain: MKGKEEKEGGARLGAGGGSPEKSPSAQELKEQGNRLFVGRKYPEAAACYGRAITRNPLVAVYYTNRALCYLKMQQHEQALADCRRALELDGQSVKAHFFLGQCQLEMESYDEAIANLQRAYSLAKEQRLNFGDDIPSALRIAKKKRWNSIEERRIHQESELHSYLSRLIAAERERELEECQRNHEGDEDDSHVRAQQACIEAKHDKYMADMDELFSQVDEKRKKRDIPDYLCGKISFELMREPCITPSGITYDRKDIEEHLQRVGHFDPVTRSPLTQEQLIPNLAMKEVIDAFISENGWVEDY
